One assay addresses T1, 可溶性CD20 (Genentech) (UniProt P11836).
T1 sequence (looked up): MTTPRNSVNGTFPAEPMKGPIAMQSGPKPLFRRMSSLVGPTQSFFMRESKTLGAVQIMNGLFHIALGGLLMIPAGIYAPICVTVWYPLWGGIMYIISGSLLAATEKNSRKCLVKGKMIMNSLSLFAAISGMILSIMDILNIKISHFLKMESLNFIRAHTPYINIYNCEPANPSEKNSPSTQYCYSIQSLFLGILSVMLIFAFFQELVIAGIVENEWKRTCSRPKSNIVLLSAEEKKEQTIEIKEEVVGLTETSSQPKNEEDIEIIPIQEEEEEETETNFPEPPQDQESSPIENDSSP
In words: ELISA, soluble CD20 coated on plate.

Assay [1] concerns the target T2, CD20 on WIL2-S cells (human) (UniProt P11836).
T2 sequence (looked up): T1 sequence (looked up)
Kind of assay: cell ELISA, WIL2-S; ratio vs chimeric 2H7.v6.8.

Substitutions are numbered along the chain they refer to.

Fold increase in binding (vs 2H7.v16 and 2H7.v588) and 相对结合 data for 4 molecules are collected here from CN101151278A.

B1: hu2H7.v511 (antibody, human IgG1, kappa, V domains shown)
VH: EVQLVESGGGLVQPGGSLRLSCAASGYTFTSYNMHWVRQAPGKGLEWVGAIYPGNGATSYNQKFKGRFTISVDKSKNTLYLQMNSLRAEDTAVYYCARVVYYSYRYWYFDVWGQGTLVTVSS
VL: DIQMTQSPSSLSASVGDRVTITCRASSSVSYLHWYQQKPGKAPKPLIYAPSNLASGVPSRFSGSGSGTDFTLTISSLQPEDFATYYCQQWAFNPPTFGQGTKVEIKR
Regarding B1, the fold increase in binding (vs 2H7.v16 and 2H7.v588) in the assay with 可溶性CD20 (Genentech) turned out to be 90 fold.

B2: 2H7.v4 (antibody, IgG1, V domains shown)
VH: B1 VH with G49A, A57D, K74N, Y104N, R105S
VL: B1 VL with L32M, P45L, A91S
As to B2, the 相对结合 in assay [1] is 0.21.

B3: 人源化2H7型式2 (2H7.v2) (antibody, IgG1, V domains shown)
VH: B1 VH with G49A, A57D, V72R, K74N, Y104N, R105S
VL: B1 VL with L32M, P45L, A91S
As for B3, the 相对结合 in assay [1] was found to be 0.01.

B4: 2H7.v3 (antibody, IgG1, V domains shown)
VH: B1 VH with G49A, A57D, Y104N, R105S
VL: B1 VL with L32M, P45L, A91S
Take B4: the 相对结合 in assay [1] was determined as 0.21.
